The source of these data is publication PMC12824264, “Endoglin as a BMP9 Co-Receptor in Vascular Endothelial Cells: Prodomain Displacement and TGFBRII Recruitment” (Nature communications, 2025).

B1: BMP10 growth factor domain (GFD) dimer (ligand, human, UniProt O95393 317-424, looked up)
chain: NAKGNYCKRTPLYIDFKEIGWDSWIIAPPGYEAYECRGVCNYPLAEHLTPTKHAIIQALVHLKNSQKASKACCVPTKLEPISILYLDKGVVTYKFKYEGMAVSECGCR
notes: growth factor domain (GFD) of BMP10, the cut product of the proprotein; One molecule is used for the bought GFD and for the GFD freed from pro:BMP10; also called BMP10 GFD; source: bought: R&D Systems (BMP10 GFD); in the prodomain displacement assays released from pro:BMP10 made in HEK EBNA (FURIN co-transfected), purified
B2: BMP9 growth factor domain (GFD) dimer (ligand, human, UniProt Q9UK05 320-429, looked up)
chain: SAGAGSHCQKTSLRVNFEDIGWDSWIIAPKEYEAYECKGGCFFPLADDVTPTKHAIVQTLVHLKFPTKVGKACCVPTKLSPISVLYKDDMGVPTLKYHYEGMSVAECGCR
notes: growth factor domain (GFD) of BMP9, the cut product of the proprotein; also called BMP9 GFD; source: bought: R&D Systems (BMP9 GFD); in the prodomain displacement assays released from pro:BMP9 made in HEK EBNA, purified
B3: monomeric soluble endoglin (full-length ENG extracellular domain), sENG(M) (domain or fragment, human, UniProt P17813 26-586, looked up)
chain: ETVHCDLQPVGPERGEVTYTTSQVSKGCVAQAPNAILEVHVLFLEFPTGPSQLELTLQASKQNGTWPREVLLVLSVNSSVFLHLQALGIPLHLAYNSSLVTFQEPPGVNTTELPSFPKTQILEWAAERGPITSAAELNDPQSILLRLGQAQGSLSFCMLEASQDMGRTLEWRPRTPALVRGCHLEGVAGHKEAHILRVLPGHSAGPRTVTVKVELSCAPGDLDAVLILQGPPYVSWLIDANHNMQIWTTGEYSFKIFPEKNIRGFKLPDTPQGLLGEARMLNASIVASFVELPLASIVSLHASSCGGRLQTSPAPIQTTPPKDTCSPELLMSLIQTKCADDAMTLVLKKELVAHLKCTITGLTFWDPSCEAEDRGDKFVLRSAYSSCGMQVSASMISNEAVVNILSSSSPQRKKVHCLNMDSLSFQLGLYLSPHFLQASNTIEPGQQSFVQVRVSPSVSEFLLQLDSCHLDLGPEGGTVELIQGRAAKGNCVSLLSPSPEGDPRFSFLLHFYTVPIPKTGTLSCTVALRPKTGSQDQEVHRTVFMRLNIISPDLSGCTSKG
notes: signal peptide in the construct; Expressed as a mixture of dimer and monomer; also called monomeric sENG; sENG-His; source: HEK EBNA, transfected (pCEP4), purified from conditioned medium (HisTrap excel, HiTrap Q HP, Superdex 200)
B4: dimeric soluble endoglin (full-length ENG extracellular domain), sENG(D) (domain or fragment, human, UniProt P17813 26-586, looked up)
chain: B3 chain
notes: signal peptide in the construct; Same construct as m1; It stays a dimer on non-reducing SDS-PAGE; also called dimeric sENG; sENG-His; source: HEK EBNA, transfected (pCEP4), purified from conditioned medium (HisTrap excel, HiTrap Q HP, Superdex 200)

Conditions in all cases: both partners purified
Experiment [1] has as its target B3. The experiment in a line: SEC; analytical gel filtration; pro:BMP9 or pro:BMP10 pre-mixed with 0.3-fold sENG(M) or sENG(D).
Experiment [2] has as its target B4. The description is as above.
Experiment [3] concerns the target B4. The experiment can be described thus: SEC; S200 10/300 gel filtration; sENG(M) at 6x or sENG(D) at 3x molar excess premixed with pro:BMP9 or pro:BMP10 for 30 min; fractions on non-reducing SDS-PAGE.
Experiment [4] deals with B3. The experiment can be described thus: native gel or EMSA; pro:BMP9 or pro:BMP10 pre-mixed with sENG(D), sENG(M), BMPRII ECD or ActRIIB ECD at stated molar ratios (from 0.3:1) in TBS, 8 ul, 30 min at room temperature; 10% native PAGE at 4 C; bands cut out and re-run on non-reducing SDS-PAGE.
Experiment [5] deals with B2. The experiment can be described thus: SEC; S200 10/300 gel filtration; sENG(M) at 6x or sENG(D) at 3x molar excess premixed with pro:BMP9 or pro:BMP10 for 30 min; fractions on non-reducing SDS-PAGE.
In experiment [6] the target is B1. The description is as above.
Experiment [7] concerns the target B2. The experiment in a line: cross-linking; sENG(M) or sENG(D) with BMP9 or BMP10; crosslinker in PBS pH 7.4-8.0, 45 min at room temperature, quenched with 40 mM Tris; non-reducing SDS-PAGE.
The target in experiment [8] is B1. The description is as above.

For B1, the binding result in experiment [1] and in experiment [2] was “binds” in each case.
B2: the binding result in experiment [3] and in experiment [4] was “binds” each time.
As for B3, the “stoichiometry N” value in experiment [5] and in experiment [6] was 1 sENG(M) per GFD dimer throughout.
Consider B4, for which the “stoichiometry N” value in experiment [7] and in experiment [8] was 1 sENG(D) per GFD dimer throughout.
